# Measured values: patent US20250215052A1 (UNIVERSITY OF COPENHAGEN, published 2025)
# Where no end group is shown, it is not given here.
# B1: MAP-P4-(C5)2 (peptide)
# peptide 1: HWLKV
# peptide 2: KLALKLALKALKAALKLA
# modifications: not fully specified (N-terminus); also: dimer: two HWLKV copies joined at N-termini by NPEG4 linker, MAP peptide conjugated to the NPEG4 linker
# notes: also called MAP-peptide
# Molecular target: T1, Protein Interacting with C Kinase-1 (PICK1), purified recombinant (UniProt Q9EP80 1-416)
# T1 construct: also called purified PICK1
# T1 sequence (Q9EP80 whole entry): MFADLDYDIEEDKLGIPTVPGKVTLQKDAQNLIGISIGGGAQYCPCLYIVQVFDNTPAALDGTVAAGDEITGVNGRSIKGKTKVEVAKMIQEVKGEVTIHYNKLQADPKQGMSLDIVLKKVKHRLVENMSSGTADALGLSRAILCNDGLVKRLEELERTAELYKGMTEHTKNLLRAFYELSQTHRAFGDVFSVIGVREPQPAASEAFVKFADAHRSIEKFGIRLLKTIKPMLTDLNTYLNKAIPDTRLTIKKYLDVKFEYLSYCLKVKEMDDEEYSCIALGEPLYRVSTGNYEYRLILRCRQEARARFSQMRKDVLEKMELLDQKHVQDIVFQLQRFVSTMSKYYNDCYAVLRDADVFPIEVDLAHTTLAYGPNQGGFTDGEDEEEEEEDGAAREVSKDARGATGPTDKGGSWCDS
# Experiment: fluorescence polarization competition, tracer 5-FAM-TAT-C5, purified PICK1
binder,measurement,value
B1,Fold affinity change (vs TAT-P4-(C5)2),0.8 fold
same,Ki,5.1 nM
